Experimental findings from patent publication US20120324600A1, “CONSTITUTIVE SYNTHETIC PLANT PROMOTERS AND METHODS OF USE” (SYNGENTA PARTICIPATIONS AG, priority 2010, published 2012) are described below.

Holding throughout (assay type): in vivo
For data set [1], the system named is transgenic soybean events. Put plainly: tolerance to mesotrione herbicide spray of T1 transgenic soybean seedlings. To be noted: sprayed at V2 stage, rated approximately 10 days post-application. The source says: (§1) The first generation transgenic soybean events (T1) harboring SEQ ID NO: 3, SEQ ID NO: 4, SEQ ID NO: 5, SEQ ID NO: 6, or SEQ ID NO: 7 were characterized for segregation analysis, oat HPPD protein expression and tolerance to mesotrione herbicide spray. The green leaf tissues from the first trifoliate of five independent events were sampled to determine the segregation ratios (homozygous, heterozygous or null) of the individual seedlings as determined by zygosity Taqman® assays and oat HPPD protein expression by ELISA. At the V2 stage, the seedlings were sprayed with the HPPD inhibiting herbicide mesotrione and tolerance rating determined approximately 10 days post-application.

The subject of data set [2] is oat HPPD protein expression. Put plainly: oat HPPD protein expression by ELISA in T1 transgenic soybean events. Particulars: inferred from ELISA and mesotrione tolerance of HOM vs HET siblings.
Excerpt: To express a synthetic oat (Avena sativa) 4-hydroxyphenylpyruvate dioxygenase (cAvHPPD) in stably transformed soybean, viral transcriptional and translational enhancers, and a minimal promoter were created by PCR or direct DNA synthesis and combined by standard DNA restriction digestion and ligation reactions. A synthetic plant promoter comprising defined components eFMV (SEQ ID NO: 1), eTMV (SEQ ID NO: 2), the Cauliflower Mosaic Virus 35S enhancer region (e35S) and a minimal promoter (pr35SCMP: Cestrum Yellow Leaf Curl virus TATA-box motif; no CAAT 35S-proximal promoter sequence) were combined to create SEQ ID NO: 3. Subsequently, SEQ ID NO: 3 was modified by digestion with a DNA restriction enzyme XhoI to remove defined components e35S, pr35SCMP (including the TATA-box motif) followed by a standard ligation reaction to create SEQ ID NO: 4. […] One skilled in the art would readily recognize other subelements which would be suitable to use.
The plasmids containing the synthetic plant promoter expression cassettes were transformed into soybean using Agrobacterium tumefaciens. […] Expression of cAvHPPD of surviving T0 plants was quantified by ELISA (Engvall E, Perlman P (1971). “Enzyme-linked immunosorbent assay (ELISA). Quantitative assay of immunoglobulin G”. Immunochemistry 8(9):871-874).
as §1
Background: In an ELISA, binding on a coated surface is turned into a signal by an enzyme label.

In data set [3] the test system is transgenic corn events. Put plainly: Glyphosate phytotoxicity (percent injury) of transgenic corn events carrying promoter-EPSPS cassettes. To be noted: maize; for efficiency in promoting expression of an operably linked heterologous sequence compared with unmodified cestrum virus promoter: EPSPS gene, glyphosate tolerance. The source says: SEQ ID NO: 8 was synthesized by Gene Art as a SanDI/BamHI fragment then ligated directly into a cloning vector harboring the EPSPS gene (cZmEPSPSct-01) to confer glyphosate tolerance (Terada, et al., (1995) A type I element composed of the hexamer (ACGTCA) and octamer (CGCGGATC) motifs plays a role(s) in meristematic expression of a wheat histone H3 gene in transgenic rice plants. Plant Molecular Biology 27: 17-26). SEQ ID NO: 9 was created by ligation of the xZmH3Cis DNA elements to the prCMP promoter as an NheI fragment such that these elements are 5′ to the TATA-BOX (Brignon, et al., (1993) Nuclease sensitivity and functional analysis of a maize histone H3 gene promoter. Plant Molecular Biology 22: 1007-1015).
See Table 9 for glyphosate phytotoxicity, in terms of percent injury. Plants were sprayed with an appropriate amount of glyphosate (i.e. 4× Touchdown®) at the V4 stage and the V8 stage. Percent injury was measured at 7 and 14 days after the V4 stage glyphosate spray, as well as 7 and 14 days after V8 stage glyphosate spray.

B1: SEQ ID NO: 4: synthetic plant promoter, subelements eFMV, eTMV; 267 bp (nucleic acid)
DNA: AGCTGCTTGTGGGGACCAGACAAAAAAGGAATGGTGCAGAATTGTTAGGCGCACCTACCAAAAGCATCTTTGCCTTTATTGCAAAGATAAAGCAGATTCCTCTAGTACAAGTGGGGAACAAAATAACGTGGAAAAGAGCTGTCCTGACAGCCCACTCACTAATGCGTATGACGAACGCAGTGACGACCACAAAACTCGAGTATTTTTACAACAATTACCAACAACAACAAACAACAAACAACATTACAATTACTATTTACAATTACA
modifications: synthetic plant promoter
notes: synthetic plant promoter, subelements eFMV, eTMV; 267 bp
In the case of B1, in data set [1], the “tolerance to mesotrione herbicide spray” value is listed as “improved tolerance to the HPPD inhibitor herbicide mesotrione”. Moreover, the “transgene silencing in HOM plants” value in data set [2] is “relieve transgene silencing”.

B2: SEQ ID NO: 8: synthetic plant promoter for maize, subelements eFMV, e35S, prTaHisH3, eTMV; 834 bp (nucleic acid)
DNA: AGCTGCTTGTGGGGACCAGACAAAAAAGGAATGGTGCAGAATTGTTAGGCGCACCTACCAAAAGCATCTTTGCCTTTATTGCAAAGATAAAGCAGATTCCTCTAGTACAAGTGGGGAACAAAATAACGTGGAAAAGAGCTGTCCTGACAGCCCACTCACTAATGCGTATGACGAACGCAGTGACGACCACAAAACTCGAGACTTTTCAACAAAGGGTAATATCCGGAAACCTCCTCGGATTCCATTGCCCAGCTATCTGTCACTTTATTGTGAAGATAGTGGAAAAGGAAGGTGGCTCCTACAAATGCCATCATTGCGATAAAGGAAAGGCTATCGTTGAAGATGCCTCTGCCGACAGTGGTCCCAAAGATGGACCCCCACCCACGAGGAGCATCGTGGAAAAAGAAGACGTTCCAACCACGTCTTCAAAGCAAGTGGATTGATGTGATATCTCCACTGACGTAAGGGATGACGAACAATCCCACTATCCTTCTGCCGGACCCAAGCTTTCGGCCACGTCACCAATCCGCGGCATTCCTACCCGGATCGCCATCTCGACCGTCCACTCCATCCGCATCCAACGGCAAGTACATGCCTCTCGTCCCCTCCCGAAAAACCAAAACCCAAACCCGCCCGCTCTCTCGGTGCTCCTCCTATTTAACTCCGCCCCGTCCCCTTCTTCCTCCTCACCCCAATCTCCCCAGCCCCCAACCACCAGAGCCTCCTCCTCCCCTCCGGCGCATCGACGACAAGGGATCCACCTCGAGTATTTTTACAACAATTACCAACAACAACAAACAACAAACAACATTACAATTACTATTTACAATTACACATGTAAACC
modifications: synthetic plant promoter
notes: synthetic plant promoter for maize, subelements eFMV, e35S, prTaHisH3, eTMV; 834 bp
For the molecule B2, in data set [3], the “evidence of HDGS and HDMS” value was “no evidence of HDGS and HDMS”; the “efficiency in promoting expression of an operably linked heterologous sequence compared with unmodified cestrum virus promoter” value is reported as “function at least as well on average as the unmodified cestrum virus promoter”. Also, the “efficiency in promoting expression of an operably linked heterologous sequence compared with unmodified cestrum virus promoter” value in data set [3] (listed as 8) is listed as “as efficient in promoting the expression of an operably linked heterologous sequence as an unmodified cestrum virus promoter”.

B3: SEQ ID NO: 9: synthetic plant promoter for maize, subelements eFMV, e35S, eNOS, prCMP, xZmH3Cis, eTMV; 1294 bp (nucleic acid)
DNA: AGCTGCTTGTGGGGACCAGACAAAAAAGGAATGGTGCAGAATTGTTAGGCGCACCTACCAAAAGCATCTTTGCCTTTATTGCAAAGATAAAGCAGATTCCTCTAGTACAAGTGGGGAACAAAATAACGTGGAAAAGAGCTGTCCTGACAGCCCACTCACTAATGCGTATGACGAACGCAGTGACGACCACAAAACTCGAGACTTTTCAACAAAGGGTAATATCCGGAAACCTCCTCGGATTCCATTGCCCAGCTATCTGTCACTTTATTGTGAAGATAGTGGAAAAGGAAGGTGGCTCCTACAAATGCCATCATTGCGATAAAGGAAAGGCTATCGTTGAAGATGCCTCTGCCGACAGTGGTCCCAAAGATGGACCCCCACCCACGAGGAGCATCGTGGAAAAAGAAGACGTTCCAACCACGTCTTCAAAGCAAGTGGATTGATGTGATATCTCCACTGACGTAAGGGATGACGAACAATCCCACTATCCTTCTGCCGGACCCTCATGAGCGGAGAATTAAGGGAGTCACGTTATGACCCCCGCCGATGACGCGGGACAAGCCGTTTTACGTTTGGAACTGACAGAACCGCAACGAAGCTTTGGCAGACAAAGTGGCAGACATACTGTCCCACAAATGAAGATGGAATCTGTAAAAGAAAACGCGTGAAATAATGCGTCTGACAAAGGTTAGGTCGGCTGCCTTTAATCAATACCAAAGTGGTCCCTACCACGATGGAAAAACTGTGCAGTCGGTTTGGCTTTTTCTGACGAACAAATAAGATTCGTGGCCGACAGGTGGGGGTCCACCATGTGAAGGCATCTTCAGACTCCAATAATGGAGCAATGACGTAAGGGCTTACGAAATAAGTAAGGGTAGTTTGGCATATGCTGGTGGCAGAGGGTGTGCTTCCCTGCTTGGGCGGGCACGCTGGGATGGCGAAAATTTTCGGAAGCGCTGGGATGGCGAAAATTTTCGGAAGCGCTGGGCGCTGGCGCGGGCGGCGGACAACTATGGGTCGTTGGATTGGGAATTGGGATGGAGGGCGAGGGTGTCGCTGCTGGCGGGGGTCGATCCGCGTGTTGAGCGATCTGCGAGGATTATGTCCACTCACCCGTCAGTCTATAAATACTTAGCCCCTCCCTCATTGTTAAGGGAGCAAAATCTCAGAGAGATAGTCCTAGAGAGAGAAAGAGAGCAAGTAGCCTAGAAGTGGATCCACCTCGAGTATTTTTACAACAATTACCAACAACAACAAACAACAAACAACATTACAATTACTATTTACAATTACACATGTAAACC
modifications: synthetic plant promoter
notes: synthetic plant promoter for maize, subelements eFMV, e35S, eNOS, prCMP, xZmH3Cis, eTMV; 1294 bp
As to B3, in data set [3], the “evidence of HDGS and HDMS” value is “no evidence of HDGS and HDMS”; the “efficiency in promoting expression of an operably linked heterologous sequence compared with unmodified cestrum virus promoter” value is given as “function at least as well on average as the unmodified cestrum virus promoter”. In data set [3] (listed as 9), the “efficiency in promoting expression of an operably linked heterologous sequence compared with unmodified cestrum virus promoter” value was “as efficient in promoting the expression of an operably linked heterologous sequence as an unmodified cestrum virus promoter”.
